# Measurements: paper PMC12256852, “Reversible tuning of membrane sterol levels by cyclodextrin in a dialysis setting” (Biophysical Journal, 2025)
# Target: the molecule itself
# Experiment: FRET or BRET; same proteoliposomes after cholesterol delivery by dialysis against cholesterol-loaded mβCD (up to 24 h); protein-to-lipid ratio 1:16,000; 30°C; relative FRET efficiency
protein,measurement,value
"MBP-Ire1^(P501-K570, C552S) with a C-terminal cysteine (domain or fragment, Saccharomyces cerevisiae, C-terminal cysteine modified by maleimide chemistry with ATTO514 (FRET donor), ATTO594 (FRET acceptor) or NEM (unlabeled), Ire1 from Saccharomyces cerevisiae, residues P501 to K570: the entire transmembrane region with the amphipathic helix and the short transmembrane helix; endogenous cysteine 552 replaced by serine; single cysteine introduced at the C-terminal end of the construct for labeling; Donor-labeled (ATTO514) and acceptor-labeled (ATTO594) copies of the same construct were co-reconstituted; also called …) PEDLEAYRKKIHEQISRELDEKNQNSLLLKFGSLVYRIIETGVFLLLFLIFSAILQRFKILPPLYVLLSKC",binding result,binds
